Reference: PMC7801428 (2021)

Biological target: SARS-CoV-2 RBD (residues V320 to G550, strain Wuhan-Hu-1), C-terminal His tag (SARS-CoV-2, UniProt P0DTC2 320-550)
Assay: BLI

B1: human-mouse chimeric antibody 3C1 (c3C1) (antibody, V domains shown)
VH: EVQLQESGPSLVKPSQTLSLTCSVTGDSITNGYWNWIRKFPGNKLEYMGYISYSGSTYYSPSLKSRISITRDTSKNQHYLQLNSVTSEDTATYYCASDYHGSKYYFDYWGQGTTLTVSS
VL: DIVMTQSHKFMSTSVGHRVSITCKASQDVGNDVAWYQQKPGQSPKLLIYWASTRHTGVPDRFTGSGSGTDFTLTISNVQSEDLADYFCQQYNRYPYTFGGGTKLEIK
  koff: < 1e-07 s⁻¹
